Target: the molecule itself
Assay: native MS

B1: Erwinia ligand-gated ion channel (ELIC), wild type (natural protein)
chain: APADNAADARPVDVSVSIFINKIYGVNTLEQTYKVDGYIVAQWTGKPRKTPGDKPLIVENTQIERWINNGLWVPALEFINVVGSPDTGNKRLMLFPDGRVIYNARFLGSFSNDMDFRLFPFDRQQFVLELEPFSYNNQQLRFSDIQVYTENIDNEEIDEWWIRKASTHISDIRYDHLSSVQPNQNEFSRITVRIDAVRNPSYYLWSFILPLGLIIAASWSVFWLESFSERLQTSFTLMLTVVAYAFYTSNILPRLPYTTVIDQMIIAGYGSIFAAILLIIFAHHRQAMGVEDDLLIQRCRLAFPLGFLAIGCVLVIRGITL
- stoichiometry N: 5
